# From the nanobody polyreactivity screen of Harvey et al. (2022)
# Experiment: yeast display, Sf9 membrane polyspecificity reagent, FACS + sequencing; frameworks hold sequencing errors
# Outline: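 Nanobodies came from a synthetic yeast display library in Saccharomyces cerevisiae BJ5465, induced with galactose for 36–48 hours and stained for 1 hour at 4 °C with 10% biotinylated, detergent-solubilized Sf9 membrane reagent. Cells were enriched on streptavidin microbeads and then FACS-sorted, with low and high (top ~1%) gates set on anti-HA fluorescence for expression and streptavidin fluorescence for reagent binding. Each polyreactivity label reflects the gate a clone came from. Genes were amplified by colony PCR, sequenced by MiSeq 2 × 250 and filtered by CDR length.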
row,Sequence,polyreactivity (PSR sort gate)
1,QVQLVESGGGLVQAGGSLRLSCAASGRILPGYALGWYRQAPGKERELVAAIRGNGDSTYYADSVKGRFTISRDNAKNTVYLQMNSLKPEDTAVYYCAARRVSTIPRDSYRGRKYGYWGQGTQVTVSS,low polyreactivity
2,QVQLVESGGGLVQAGGSLRLSCAASGRILPSNAMGWYRQAPGKEREFVAGISGSGGSTYYADSVKGRFTISRDNAKNTVYLQMNSLKPEDTAVYYCAAGRAYDGTKHDYWGQGTQVTVSS,high polyreactivity
3,QVQLVESGGGLVQAGGSLRLSCAASGRILPWYAMGWYRQAPGKERELVARIRSTDSTNYADSVKGRFTISRDNAKNTVYLQMNSLKPEDTAVYYCAKVQWGFPYAWLGSDYWGQGTQVTVSS,low polyreactivity
4,QVQLVESGGGLVQAGGSLRLSCAASGRILPYNVMGWYRQAPGKEREFVAAITGSGGDTYYADSVKGRFTISRDNAKNTVYLQMNSLKPEDTAVYYCAAAPYIGGSFGQTPGSGYWGQGTQVTVSS,low polyreactivity
5,QVQLVESGGGLVQAGGSLRLSCAASGRILPYNVMGWYRQATGKEREFVAAITGSGGDTYYADSVKGRFTISRDNAKNTVYLQMHILKPVDTAVYYCAAAPYIGGSFGQTPGSGYWGQGTQVTVSS,low polyreactivity
6,QVQLVESGGGLVQAGGSLRLSCAASGRILQYNDMGWYRPAPGKERELVAAIDWSGGITYYADSVKGRFTISRDNAKNTVYLQMNSLKPEDTAVYYCNADFEYSYLYRMEYWGQGTQVTVSS,low polyreactivity
7,QVQLVESGGGLVQAGGSLRLSCAASGRILRFYAMGWYRQAPGKERELVATISRSGGSTYYADSVKGRFTISRDNAKNTVYLQMNSLKPEDTAVYYSNAKFKGVSYKMDYWGQGTQVTVSS,high polyreactivity
8,QVQLVESGGGLVQAGGSLRLSCAASGRILRSNAMGWYRQAPGKERELVAAITSSGGSTRYADSVKGRFTISRDNAKNTVYLQMNSLKPEDTAVYYCAARYRQGFQAGHGYWGQGTQVTVSS,high polyreactivity
9,QVQLVESGGGLVQAGGSLRLSCAASGRILRYNAMGWYRQAPGKERELVAAITRTGGITRYADSVKGRFTISRDNAKNTVSLQMNSLNPQDTAVYYCNTYPRYGYVLSWPQGYDYWGQGTQVTVSS,low polyreactivity
10,QVQLVESGGGLVQAGGSLRLSCAASGRILRYNAMGWYRQAPGKERELVASISGNGGSTYYADSVKGRFTISRDNAKNTVYVQMNSLKPEDTAVYYCNKYYYSSRGQKEYDYWGQGTQVTVSS,low polyreactivity
11,QVQLVESGGGLVQAGGSLRLSCAASGRILRYYAMGWYRQAPGKELELVASISRGGSTYYADSVKGRFTISRDNAKNTVYLQMNSLKPEDTAVYYCATEVRRSTREFGYWGQGTQVTVSS,high polyreactivity
12,QVQLVESGGGLVQAGGSLRLSCAASGRILRYYTMGWYRQAPGKERELVAAITWSGGSTNYADSVKGRFTISRDYAKNTVYLQMNSLKPEDSEVYYCNADRRKYYFTYGSWGQGTQVTVSS,high polyreactivity
13,QVQLVESGGGLVQAGGSLRLSCAASGRILSANAMGWYRQAPGTERELVAAITYSGDNTYYADSVKGRFTISRDNAKNTVYLQMNSLKPEDTAVYYCAREFQVDGGEEDYWGQGSQVTVSS,low polyreactivity
14,QVQLVESGGGLVQAGGSLRLSCAASGRILSLYAMGWNRQAPGKERELVASINWSDGSTYYADSVKGRFTISRDNAKNTVYLQMNSLKPEDTAVYYCTVDVRSYVAGYDYWGQGTQVTVSS,low polyreactivity
15,QVQLVESGGGLVQAGGSLRLSCAASGRILSTYAMGWYRQAPGKERELVAVISWTGGRTYYADSVKGRFTISRYNAKNTVYLQMNSLKPEDTAVYYCNARPYYGGTRGRQYEYGYWGQGSQVTVSS,high polyreactivity
16,QVQLVESGGGLVQAGGSLRLSCAASGRILSYYAMGWYRQAPGKERELVARITGRGGSTYYADSVKGRFTISRDNAKNTVYLQMNSLKPEDTAVYYCAAVPWVVYSGYDYWGQGTQVTVSS,low polyreactivity

row,Sequence,polyreactivity (PSR sort gate)
1,QVQLVESGGGLVQAGGSLRLSCAASGRILTSNAMGWYRQAPGKERELVAAISWSGGSTYYADSVKGRFTISRDNAKNTVYLQMNSLKPEDTAVYYCAARSIGRAGGYHYWGQGTQVTVSS,low polyreactivity
2,QVQLVESGGGLVQAGGSLRLSCAASGRILTTNAMGLYRQETGKERELVAAITRSGGRTYYADSVKGRFTISRDNAKNTVYLQMNSLKPEDTAVYYCNAVTTRLALYDYWGQGTQVTVSS,high polyreactivity
3,QVQLVESGGGLVQAGGSLRLSCAASGRILVSYAMGWYRQAPGKERELVAAISRSGGSTYYADSVKGRFTISRDNAKNTVYLQMNSLKPEDTAVYYCNVYRFSRYDYWGQGTQVTVSS,high polyreactivity
4,QVQLVESGGGLVQAGGSLRLSCAASGRILVTYAMGWYRQAPGKERELVAAITRGTNTNYADSVKGRFTISRDNAKNTVYLQMNSLKPEDTAVYYCAARRYRYRYGYGGDYWGQGTQVTVSS,high polyreactivity
5,QVQLVESGGGLVQAGGSLRLSCAASGRILWGNVMGWYRKAPGKERELVATITHGGSTNYADSVKGRFTISRDNAKNTVYLQMNSLKPEDTAVYYCARATRIQFYRRPYNYWGQGTQVTVSS,high polyreactivity
6,QVQLVESGGGLVQAGGSLRLSCAASGRILYGNAMGWYRKAPGKERELVAAITRRGGSTYYADSVKGRFTISRDNAKNTVYLQMNSLKPEDTAVYYCNKVVGYRDTDFDYWGQGTQVTVSS,high polyreactivity
7,QVQLVESGGGLVQAGGSLRLSCAASGRILYRYAMGWSRQAAGTEREVVAAISRSGGDTYYADSVKGRFTISRDNAKNTVYLQMNSLKPEDTAVYYCAGYSSWSGGLGGVYYWGQGTQVTVSS,low polyreactivity
8,QVQLVESGGGLVQAGGSLRLSCAASGRILYVNAMGWYRQAPGKERELVAAISWRGGRTYYADSVKGRFTISRDHAKNTVYLQMNSLKPEDTAVYYCAARARGGYQRDYWGQGTQVTVSS,high polyreactivity
9,QVQLVESGGGLVQAGGSLRLSCAASGRILYYYAMGWYRQAPGKERELVAAINSSGGSTYYADSVKGRFTISRDNAKNTVYLQMNSLKPEDTAVYYCAAVRSKLYYYWGQGTQVTVSS,high polyreactivity
10,QVQLVESGGGLVQAGGSLRLSCAASGRIPAYAMGWYRQAPWKERELVAAITWSGGSTYYADSVKGRFTISRDNAKNTVYLQMISLKPEDTSVDYCAAKQWGRYGYWGKGTQVTVSS,high polyreactivity
11,QVQLVESGGGLVQAGGSLRLSCAASGRIRYAMGWYRQAPGKERELVAGITWSGGRTYYADSVKGRFTISRDNAKNTVYLQMNSLKPEDTAVYYCAAATPYRYNYWGQGTQVTVSA,high polyreactivity
12,QVQLVESGGGLVQAGGSLRLSCAASGRISARYVMGWYRQAPGKERELVAAISWSGDRTYYADSVKGRFTISRDNAKNTVYLQMNSLKPEDTAVYYCANGFYSRLAYGYGYWGQGTQVTVSS,high polyreactivity
13,QVQLVESGGGLVQAGGSLRLSCAASGRISDDYAMGWYRQAPGKERELVADITSGGNTYYADSVKGRFTISRDNAKNTVYLQMNSLKPEDTAVYYCNAYYVGYIRYWTNKLVDYWGQGTQVTVSS,high polyreactivity
14,QVQLVESGGGLVQAGGSLRLSCAASGRISFNAMGWYRQAPGKERELVAAITSSGGRTYYADSVKGRFTISRDNAKNTVYLQMNSLKPEDTAVYYCATGSPGGSPGWGRTTGRLGYWGQGTQVTVSS,high polyreactivity
15,QVQLVESGGGLVQAGGSLRLSCAASGRISFVNAMGWYRQAPGKERELVAAISRGGSTNYADSVKGRFTISRDNAKNTVYLQMNSLKPEDTAVYYCAAQGNNYVRHTYGYWGQGTQVTVSS,low polyreactivity
